Source: doi:10.1101/2024.08.27.609886

Target: FibrilPaint1
Test: MST

Kd: 1500 nM
Substance: E3 ligase CHIP (from UniProt Q9UNE7 23-303) (enzyme)
